In EP4578875A1:
Substitutions are numbered along the chain they refer to. In names and notes the source's numbering stands.

B1: anti-CD3 antibody mutant VH-M34C (antibody, V domains shown)
VH: EVQLVESGGGLVQPGGSLRLSCAASGFTFSTYACNWVRQAPGKGLEWVGRIRSKYNNYATYYADSVKDRFTISRDDSKNSLYLQMNSLKTEDTAVYYCARHGNFGNSYVSWFAYWGQGTLVTVSS
VL: QTVVTQEPSLTVSPGGTVTLTCRSSTGAVTTSNYANWVQQKPGQAPRGLIGGTNKRAPGVPARFSGSLLGDKAALTLLGAQPEDEAEYFCALWYSNLWVFGGGTKLTVL
B2: anti-CD3 antibody mutant VH-F104C (antibody, V domains shown)
VH: B1 VH with C34M, F104C
VL: B1 VL
B3: anti-CD3 antibody mutant VH-W111C (antibody, V domains shown)
VH: B1 VH with C34M, W111C
VL: B1 VL
B4: anti-CD3 antibody mutant VL-W93C (antibody, V domains shown)
VH: B1 VH with C34M
VL: B1 VL with W93C
B5: anti-CD3 antibody mutant VL-Y94C (antibody, V domains shown)
VH: B1 VH with C34M
VL: B1 VL with Y94C
B6: anti-CD3 antibody mutant VL-K55C (antibody, V domains shown)
VH: B1 VH with C34M
VL: B1 VL with K55C
B7: anti-CD3 antibody mutant VL-Y34C (antibody, V domains shown)
VH: B1 VH with C34M
VL: B1 VL with Y34C
B8: anti-CD3 antibody mutant VH-Y61C (antibody, V domains shown)
VH: B1 VH with C34M, Y61C
VL: B1 VL
B9: anti-CD3 antibody mutant VL-N96C (antibody, V domains shown)
VH: B1 VH with C34M
VL: B1 VL with N96C
B10: anti-CD3 antibody mutant VL-N54C (antibody, V domains shown)
VH: B1 VH with C34M
VL: B1 VL with N54C
B11: anti-CD3 antibody mutant VL-R56C (antibody, V domains shown)
VH: B1 VH with C34M
VL: B1 VL with R56C
B12: anti-CD3 antibody mutant VH-S53C (antibody, V domains shown)
VH: B1 VH with C34M, S53C
VL: B1 VL
B13: anti-CD3 VH-Y61C mutant conjugated with PEG5K, after activation (antibody, V domains shown)
VH: B1 VH with C34M, Y61C
VL: B1 VL
modifications: Cys 61 with what is left of the linker after activation (PEG5K blocker released); structure not given
B14: anti-CD3 VH-Y61C mutant conjugated with PEG40K, after activation (antibody, V domains shown)
VH: B1 VH with C34M, Y61C
VL: B1 VL
modifications: Cys 61 with what is left of the linker after activation (PEG40K blocker released); structure not given
B15: anti-CD3 VH-Y61C mutant conjugated with PEG10K, after activation (antibody, V domains shown)
VH: B1 VH with C34M, Y61C
VL: B1 VL
modifications: Cys 61 with what is left of the linker after activation (PEG10K blocker released); structure not given
B16: anti-CD3 VH-Y61C mutant conjugated with PEG20K, after activation (antibody, V domains shown)
VH: B1 VH with C34M, Y61C
VL: B1 VL
modifications: Cys 61 with what is left of the linker after activation (PEG20K blocker released); structure not given
B17: anti-CD3 antibody mutant VL-W93C conjugated with Molecule I (+20K) (antibody, V domains shown)
VH: B1 VH with C34M
VL: B1 VL with W93C
modifications: Molecule I (+20K, shown only as a drawing) conjugated on Cys 93
B18: anti-CD3 antibody mutant VL-R56C conjugated with Molecule I (+20K) (antibody, V domains shown)
VH: B1 VH with C34M
VL: B1 VL with R56C
modifications: Molecule I (+20K, shown only as a drawing) conjugated on Cys 56
B19: anti-CD3 antibody mutant VH-M34C conjugated with Molecule I (+20K) (antibody, V domains shown)
VH: B1 VH
VL: B1 VL
modifications: Molecule I (+20K, shown only as a drawing) conjugated on Cys 34
B20: anti-CD3 antibody mutant VH-W111C conjugated with Molecule I (+20K) (antibody, V domains shown)
VH: B1 VH with C34M, W111C
VL: B1 VL
modifications: Molecule I (+20K, shown only as a drawing) conjugated on Cys 111
B21: anti-CD3 antibody mutant VL-N54C conjugated with Molecule I (+20K) (antibody, V domains shown)
VH: B1 VH with C34M
VL: B1 VL with N54C
modifications: Molecule I (+20K, shown only as a drawing) conjugated on Cys 54
B22: anti-CD3 antibody mutant VL-N96C conjugated with Molecule I (+20K) (antibody, V domains shown)
VH: B1 VH with C34M
VL: B1 VL with N96C
modifications: Molecule I (+20K, shown only as a drawing) conjugated on Cys 96
B23: anti-CD3 antibody mutant VH-Y61C conjugated with Molecule I (+20K) (antibody, V domains shown)
VH: B1 VH with C34M, Y61C
VL: B1 VL
modifications: Molecule I (+20K; cleavable linker with PEG20K, shown only as a drawing) conjugated on Cys 61
B24: anti-CD3 antibody mutant VH-S53C conjugated with Molecule I (+20K) (antibody, V domains shown)
VH: B1 VH with C34M, S53C
VL: B1 VL
modifications: Molecule I (+20K, shown only as a drawing) conjugated on Cys 53
B25: anti-CD3 antibody mutant VH-F104C conjugated with Molecule I (+20K) (antibody, V domains shown)
VH: B1 VH with C34M, F104C
VL: B1 VL
modifications: Molecule I (+20K, shown only as a drawing) conjugated on Cys 104
B26: anti-CD3 antibody mutant VL-Y34C conjugated with Molecule I (+20K) (antibody, V domains shown)
VH: B1 VH with C34M
VL: B1 VL with Y34C
modifications: Molecule I (+20K, shown only as a drawing) conjugated on Cys 34
B27: anti-CD3 antibody mutant VL-K55C conjugated with Molecule I (+20K) (antibody, V domains shown)
VH: B1 VH with C34M
VL: B1 VL with K55C
modifications: Molecule I (+20K, shown only as a drawing) conjugated on Cys 55
B28: anti-CD3 antibody mutant VL-Y94C conjugated with Molecule I (+20K) (antibody, V domains shown)
VH: B1 VH with C34M
VL: B1 VL with Y94C
modifications: Molecule I (+20K, shown only as a drawing) conjugated on Cys 94
B29: anti-CD3 VH-Y61C mutant conjugated with cleavable linker and R1 = PEG5K (antibody, V domains shown)
VH: B1 VH with C34M, Y61C
VL: B1 VL
modifications: cleavable linker peptide P with blocker PEG5K on Cys 61
B30: anti-CD3 VH-Y61C mutant conjugated with cleavable linker and R1 = PEG10K (antibody, V domains shown)
VH: B1 VH with C34M, Y61C
VL: B1 VL
modifications: cleavable linker peptide P with blocker PEG10K on Cys 61
B31: anti-CD3 VH-Y61C mutant conjugated with cleavable linker and R1 = PEG40K (antibody, V domains shown)
VH: B1 VH with C34M, Y61C
VL: B1 VL
modifications: cleavable linker peptide P with blocker PEG40K on Cys 61

target: CD3 (antibody antigen coated on the ELISA plate in Examples 1 to 3) (Homo sapiens (Human)) (UniProt P07766); experiment: ELISA, antigen coated, anti-human IgG-HRP; against wild-type anti-CD3 antibody
Sequence (P07766 23-126 limits assumed): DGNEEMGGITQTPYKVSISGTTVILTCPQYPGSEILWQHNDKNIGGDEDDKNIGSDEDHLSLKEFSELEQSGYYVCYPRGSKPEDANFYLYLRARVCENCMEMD

Binding strength of mutants (EC50 mutant/EC50 wild-type) | Binder
1.1 | B1
1 | B2
2 | B3
1.8 | B4
1 | B5
0.9 | B6
1.2 | B7
5.1 | B8
1 | B9
1 | B10
1.5 | B11
1.2 | B12

target: CD3 (antibody antigen coated on the ELISA plate in Examples 1 to 3) (Homo sapiens (Human)) (UniProt P07766); experiment: binding activity after activation of the conjugate; method not described

Recovery of binding force after activation (%) | Binder
100% | B13
100% | B14
100% | B15
100% | B16

target: CD3 (antibody antigen coated on the ELISA plate in Examples 1 to 3) (Homo sapiens (Human)) (UniProt P07766); experiment: binding activity of the conjugated mutant compared with the wild-type antibody (ELISA as in Example 1)

Blocking fold after conjugation (+20K) | Binder
5 fold | B17
6 fold | B18
5 fold | B19
6 fold | B20
12 fold | B21
2 fold | B22
400 fold | B23
3 fold | B24
13 fold | B25
8 fold | B26
5 fold | B27
30 fold | B28

target: CD3 (antibody antigen coated on the ELISA plate in Examples 1 to 3) (Homo sapiens (Human)) (UniProt P07766); experiment: binding activity after conjugation with different R1; method not described

Blocking fold after conjugation | Binder
10 fold | B29
20 fold | B30
500 fold | B31
400 fold | B23
